T1: Boi1 SH3 (BOI1_YEAST), P38041
T1 chain: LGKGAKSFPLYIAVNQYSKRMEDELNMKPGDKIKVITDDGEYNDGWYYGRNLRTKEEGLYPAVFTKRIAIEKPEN

T2: Boi2 SH3 (BOI2_YEAST), P39969
T2 chain: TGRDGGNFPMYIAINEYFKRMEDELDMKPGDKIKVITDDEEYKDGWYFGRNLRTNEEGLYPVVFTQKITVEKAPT

T3: Rvs167 SH3 (RV167_YEAST), P39743
T3 chain: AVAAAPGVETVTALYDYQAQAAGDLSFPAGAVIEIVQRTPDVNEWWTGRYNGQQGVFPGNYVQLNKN

T4: Yfr024 SH3 (LSB3_YEAST), P43603
T4 chain: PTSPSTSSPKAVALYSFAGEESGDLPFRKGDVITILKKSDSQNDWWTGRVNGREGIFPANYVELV

T5: Yhr016c SH3 (YSC84_YEAST), P32793
T5 chain: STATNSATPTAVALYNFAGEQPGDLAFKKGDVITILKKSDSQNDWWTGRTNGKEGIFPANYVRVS


Assays:
Test in all cases: SPOT array
[1] = biological target: T1, Boi1 SH3 (BOI1_YEAST), P38041
[2] = biological target: T2, Boi2 SH3 (BOI2_YEAST), P39969
[3] = biological target: T3, Rvs167 SH3 (RV167_YEAST), P39743
[4] = biological target: T4, Yfr024 SH3 (LSB3_YEAST), P43603
[5] = biological target: T5, Yhr016c SH3 (YSC84_YEAST), P32793

Row | Binder | normalised SPOT signal, Boehringer light units (BLU); mean over the file's lines of this peptide [1] | normalised SPOT signal, Boehringer light units (BLU); mean over the file's lines of this peptide [2] | normalised SPOT signal, Boehringer light units (BLU); mean over the file's lines of this peptide [3] | normalised SPOT signal, Boehringer light units (BLU); mean over the file's lines of this peptide [4] | normalised SPOT signal, Boehringer light units (BLU); mean over the file's lines of this peptide [5]
1 | TSSPPLPPRQNVAT [YPL249C 279-292] | 37.2 | 30.4 | 16700 | 25300 | 47000
2 | TSTPPLPRRRATTS [YGL181W 247-260] | 16400 | 1870 | 55700 | 36200 | 122000
3 | TTAPRGPKKAQPAQ [YGR097W 176-189] | 138 | 43.9 | 89.5 | 169 | 264
4 | TTRPAPPSKAKDVA [YAL011W 347-360] | 61.3 | 72 | 125 | 767 | 251
5 | TTVPTKPKKPHDIS [YKR084C 145-158] | 81.6 | 22.9 | 18.4 | 1540 | 114
6 | VAKPKKPARPTMST [YNL298W 513-526] | 71.1 | 77.1 | 86.9 | 9080 | 4950
7 | VAPPPLPNRQLPNL [YNL094W 505-518] | 1470 | 73.2 | 32500 | 32400 | 27300
8 | VSPPSFPSRRSETS [YPL006W 878-891] | 703 | 117 | 1730 | 40300 | 42100
9 | VDAPINPTKILTFI [YBR163W 375-388] | 52.9 | 69.3 | 67.9 | 0 | 34
10 | VDFPIFPRRFAKVE [YJL091C 152-165] | 2050 | 135 | 512 | 16100 | 1680
11 | VDPPFMPFRDAGYS [YFR028C 120-133] | 70.9 | 37.7 | 23.3 | 579 | -0
12 | VENPFLPAKEERTG [YIL115C 910-923] | 7.6 | 15.7 | 0 | 82.3 | 188
13 | VERPSSPTKTITTE [YML109W 711-724] | 39.5 | 45.2 | 24.4 | 0 | 159
14 | VETPPKPIKKDVRF [YDR085C 535-548] | 65 | 70.6 | 86.3 | 677 | 372
15 | VFLPTAPSKHMDFA [YCR042C 478-491] | 100 | 46.3 | 208 | 242 | 44.5
16 | VFSPTNPLRIKIAR [YGR217W 326-339] | 110 | 16.2 | 1.8 | 648 | 151
17 | VGNPEGPEKPNKKF [YKL060C 315-328] | 255 | 50.6 | 34.3 | 186 | 131
18 | VHDPNIPLRPKEII [YGR184C 643-656] | 22.9 | 57.8 | 51.5 | 562 | 110
19 | VHGPGIPMKSLEVA [YBR297W 381-394] | 44.3 | 49.9 | 43.5 | 32.9 | 381
20 | VHGPGVPVKTLEIA [YGR288W 386-399] | 114 | 56.6 | 52.7 | 43.4 | 116
21 | VHGPVIPMKALEIA [YPR196W 383-396] | 56.4 | 27.7 | 27.7 | 138 | 92.9
22 | VILPQIPPKLTFIL [YOR067C 374-387] | 107 | 10.1 | 10 | 812 | 158

From paper PMC314469, “Protein Interaction Networks by Proteome Peptide Scanning” (PLoS Biology, 2004)
